Two substances from patent publication US20040126856A1, “Factor ixa: factor Vllla interaction and methods therefor” (priority 2004, published 2004) can be followed below.

The target of test [1] is T1, A2 subunit of factor VIIIa (Homo sapiens, UniProt P00451).
T1 construct: cleaved by thrombin at R372-S373, R740-S741, and R1689-S1690 to yield factor VIIIa
T1 sequence (P00451 392-759): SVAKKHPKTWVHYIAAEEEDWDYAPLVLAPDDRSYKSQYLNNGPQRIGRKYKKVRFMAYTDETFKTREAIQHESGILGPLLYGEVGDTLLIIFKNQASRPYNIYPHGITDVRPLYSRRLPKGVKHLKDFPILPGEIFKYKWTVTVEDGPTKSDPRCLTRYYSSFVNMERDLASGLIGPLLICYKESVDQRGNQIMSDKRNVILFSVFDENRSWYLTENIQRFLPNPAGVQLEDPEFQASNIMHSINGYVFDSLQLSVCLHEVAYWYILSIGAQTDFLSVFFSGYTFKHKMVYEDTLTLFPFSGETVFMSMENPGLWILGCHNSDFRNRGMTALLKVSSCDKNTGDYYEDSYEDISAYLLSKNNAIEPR
Kind of test: EC50 (functional Kd) of interaction of factor IXa proteins with A2 subunit, factor Xa generation (S-2222). It is filed as biochemical. The note with it: 5 nM factor IXa, 250 nM factor X, 25 μM PL, 5 mM CaCl2 (FIG. 1). Here is the method: Determination of EC50 of Interaction of Factor IXa Proteins with A2 Subunit.
The EC50 (functional Kd) of binding of each factor IXa protein with A2 subunit was measured essentially as described previously for its interaction with intact factor VIIIa (Mather and Bajaj, 1999; Mather et al., 1997). For these experiments, concentrations of factor IXa and factor X were kept constant, and the rates of formation of factor Xa were determined at increasing concentrations of A2 subunit. Reaction mixtures contained 5 nM IXa protein, 250 nM factor X, 25 μM PL and various concentrations of A2 subunit in TBS/BSA, pH 7.5 containing 5 mM CaCl2. Reactions were carried out at 37° C. for 5-20 minutes and stopped by adding 1 μL of 500 mM EDTA. The amount of factor Xa generated was determined by S-2222 hydrolysis as described previously (Mather and Bajaj, 1999; Mather et al., 1997). The EC50 was obtained by fitting the data to a single site ligand binding equation (Eq. 1) by non-linear regression analysis using the program GraFit from Erithacus Software. [formula]
Where V is the rate of formation of factor Xa at a given concentration of the A2 subunit, denoted by L, and Vmax is the rate of factor Xa formation by the factor IXa:A2 subunit complex. EC50 is the functional Kd defined as the concentration of free A2 subunit yielding 50% of the Vmax. The background rate of factor Xa generation was obtained by carrying out the reaction in the absence of the A2 subunit.

Test [2] deals with T1, A2 subunit of factor VIIIa. Kind of test: Apparent KdA2 of dEGR-IXa proteins: inhibition of IXaWT:A2 subunit interaction in the tenase system. It is filed as biochemical. The note with it: for Kd: values from FIG. 3, read-out: App KdA2; for ΔG°A2: ΔG° = RTlnKd, 298 Kelvin. On the procedure: Determination of KdA2 of Binding of dEGR-IXa Proteins to A2 Subunit.
The apparent Kd (termed KdA2) for binding of each dEGR-IXa protein to the A2 subunit was determined by its ability to inhibit factor IXaWT:A2 subunit interaction in the tenase complex as described earlier for intact factor VIIIa (Mather and Bajaj, 1999; Mather et al., 1997). The reactions were carried out as described for the EC50 experiments above except dEGR-IXa and IXaWT were mixed prior to addition of the A2 subunit; this ensured steady state conditions. Mixtures contained 100 nM IXaWT, 30 nM A2 subunit, 250 nM factor X, 25 μM PL, and various concentrations of dEGR-IXa proteins in TBS/BSA, pH 7.5 containing 5 mM CaCl2. The IC50 (concentration of inhibitor required for 50% inhibition) was determined by fitting the data to the IC50 four-parameter logistic equation of Halfman (1981) given below (Eq. 2). [formula]
where y is the rate of Xa formation in the presence of a given concentration of dEGR-IXa protein represented by x, a is the maximum rate of factor Xa formation in the absence of dEGR-IXa, and s is the slope factor. Each point was weighted equally, and the data were fitted to Equation 2 using the nonlinear regression analysis program GraFit from Erithacus Software. […] To obtain KdA2 values for the interaction of dEGR-IXa proteins with A2, we used the following equation (Eq. 3) as described by Cheng and Prusoff (1973) and further elaborated by Craig (1993). [formula]
where A is the concentration of IXaWT, and EC50 is the concentration of factor IXaWT that gives a 50% maximum response in the absence of the competitor at a specified concentration of factor X used in the experiment.

In general, EC50 refers to the concentration giving half of the maximal effect. Take “IXaWT: activated recombinant wild-type factor IX (IXWT)”: in test [1] (read-out: EC50 (functional Kd), apparent Kd of interaction with the A2 subunit, single site-binding model), the EC50 was 0.257 ± 0.031 µM. For the same substance, in test [2], the Kd came out at 0.1 ± 0.011 µM and the “ΔG°A2” value was 39.9 kJ/mol.

Turning to “IXaR333Q: activated factor IX point mutant in which Arg333 is replaced by Gln”, in test [1], the “Ability of the A2 subunit to enhance/potentiate the factor X-activating activity of the IXa protein” value is reported as “severely impaired” and the “EC50 (functional Kd), apparent Kd of interaction with the A2 subunit, single site-binding model” value was “could not be calculated”. In test [2], the “Change in ΔG°A2 between the mutant and WT” value amounted to 7.2 kJ/mol; the “Fold-change in apparent KdA2 (mutant/WT)” value is reported as ~15; the Kd was determined as 1.85 ± 0.082 µM; the “ΔG°A2” value is 32.7 kJ/mol.
